From patent US20260258084A1, “New Peptides as Selective IL-23 Receptor Antagonists” (Sanofi, priority 2022, published 2026)
Starred links: 1 amine or outer side, 2 acyl side, 3 side chain; linkers in the order of their positions; H or OH if unused. Positions of bridges follow the written chain, without caps; N, C: chain ends. Non-standard residues stand in square brackets, D forms with d. Yde = (2S)-2-amino-3-[4-[2-(dimethylamino)ethoxy]phenyl]propanoic acid, CN(C)CCOc1ccc(C[C@H](N[*:1])C(=O)[*:2])cc1; Nmha = 6-(methylamino)hexanoic acid, CN(CCCCCC(=O)[*:2])[*:1]; Phe(4-OMe) = COc1ccc(C[C@H](N[*:1])C(=O)[*:2])cc1; Trp(7-Me) = Cc1cccc2c(C[C@H](N)C(=O)O)c[nH]c12; 2Nal = N[C@@H](Cc1ccc2ccccc2c1)C(=O)O; AEF = NCCOc1ccc(C[C@H](N)C(=O)O)cc1; 3Pal = N[C@@H](Cc1cccnc1)C(=O)O; αMeL = CC(C)C[C@](C)(N)C(=O)O; Nmapt = not defined here; Thp = NC1(C(=O)O)CCOCC1; Aib = CC(C)(N)C(=O)O; Ahx = NCCCCCC(=O)O; Ava = NCCCCC(=O)O; βAla = NCCC(=O)O; Sar = CNCC(=O)O

Molecular target: T1, IL-23 receptor on the surface of HEK-Blue IL-23 cells (UniProt Q5VWK5 24-629, limits assumed)
T1 sequence (looked up): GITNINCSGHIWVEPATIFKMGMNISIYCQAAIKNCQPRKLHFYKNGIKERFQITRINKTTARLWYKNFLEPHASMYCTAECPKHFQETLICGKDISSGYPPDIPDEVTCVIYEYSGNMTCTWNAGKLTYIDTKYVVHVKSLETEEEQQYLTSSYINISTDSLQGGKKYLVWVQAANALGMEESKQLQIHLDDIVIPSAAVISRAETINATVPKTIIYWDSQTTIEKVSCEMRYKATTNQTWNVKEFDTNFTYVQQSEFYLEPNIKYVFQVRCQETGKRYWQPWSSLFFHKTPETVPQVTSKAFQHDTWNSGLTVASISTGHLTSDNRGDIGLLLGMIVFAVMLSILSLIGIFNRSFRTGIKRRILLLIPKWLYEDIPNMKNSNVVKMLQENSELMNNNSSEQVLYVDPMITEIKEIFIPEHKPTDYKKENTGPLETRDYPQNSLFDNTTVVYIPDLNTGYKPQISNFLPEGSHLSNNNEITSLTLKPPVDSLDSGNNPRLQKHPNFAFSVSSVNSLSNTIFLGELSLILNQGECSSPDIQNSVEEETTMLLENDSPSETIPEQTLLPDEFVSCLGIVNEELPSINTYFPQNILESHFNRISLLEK
Experiment: cell-based or functional assay

## XCNTWQCXXXENN (Apt(§1)-C(@2)-N-T-W-Q-C(@2)-Yae-Nal-Aib-E(§1)-N-N-NH2) [Compound of SEQ ID NO: 5]
  pSTAT3 (nM): 9.66 nM

B1: Compound of SEQ ID NO: 48 (peptide)
peptide: [Ava]CNT[Trp(7-Me)]K(Ac)C[Yde][2Nal][Aib]ENH[βAla]-NH2
modifications: lactam N-11; disulfide 2-7
SMILES: CC(=O)NCCCC[C@@H]1NC(=O)[C@H](Cc2c[nH]c3c(C)cccc23)NC(=O)[C@H]([C@@H](C)O)NC(=O)[C@H](CC(N)=O)NC(=O)[C@@H]2CSSC[C@H](NC1=O)C(=O)N[C@@H](Cc1ccc(OCCN(C)C)cc1)C(=O)N[C@@H](Cc1ccc3ccccc3c1)C(=O)NC(C)(C)C(=O)N[C@H](C(=O)N[C@@H](CC(N)=O)C(=O)N[C@@H](Cc1c[nH]cn1)C(=O)NCCC(N)=O)CCC(=O)NCCCCC(=O)N2
  pSTAT3 (nM): 0.6 nM

B2: Compound of SEQ ID NO: 44 (peptide)
peptide: [Nmapt]CKWQC[AEF][2Nal][αMeL]EA[dL]-NH2
modifications: lactam N-10; disulfide 2-6; not fully specified (residue 3); printed as Nmapt(§1)-C(§3)(@2)-K[aAc](@3)-W-Q-C(@2)-Yae-Nal-Mle-E(§1)-A-(D-Leu)-NH2; reading uncertain; also: Cys2 carboxyl joined to Lys3 epsilon-NH2 (isopeptide bond)
  pSTAT3 (nM): 42.5 nM

B3: Compound of SEQ ID NO: 52 (peptide)
peptide: [Ava]CNT[Trp(7-Me)]QC[Yde][2Nal][Aib]ENH-NH2
modifications: lactam N-11; disulfide 2-7
SMILES: Cc1cccc2c(C[C@@H]3NC(=O)[C@H]([C@@H](C)O)NC(=O)[C@H](CC(N)=O)NC(=O)[C@@H]4CSSC[C@H](NC(=O)[C@H](CCC(N)=O)NC3=O)C(=O)N[C@@H](Cc3ccc(OCCN(C)C)cc3)C(=O)N[C@@H](Cc3ccc5ccccc5c3)C(=O)NC(C)(C)C(=O)N[C@H](C(=O)N[C@@H](CC(N)=O)C(=O)N[C@@H](Cc3c[nH]cn3)C(N)=O)CCC(=O)NCCCCC(=O)N4)c[nH]c12
  pSTAT3 (nM): 1.25 nM

B4: Compound of SEQ ID NO: 51 (peptide)
peptide: [Ava]CNT[Trp(7-Me)]K(Ac)C[Yde][2Nal][Thp]EN[3Pal]-NH2
modifications: lactam N-11; disulfide 2-7
SMILES: CC(=O)NCCCC[C@@H]1NC(=O)[C@H](Cc2c[nH]c3c(C)cccc23)NC(=O)[C@H]([C@@H](C)O)NC(=O)[C@H](CC(N)=O)NC(=O)[C@@H]2CSSC[C@H](NC1=O)C(=O)N[C@@H](Cc1ccc(OCCN(C)C)cc1)C(=O)N[C@@H](Cc1ccc3ccccc3c1)C(=O)NC1(CCOCC1)C(=O)N[C@H](C(=O)N[C@@H](CC(N)=O)C(=O)N[C@@H](Cc1cccnc1)C(N)=O)CCC(=O)NCCCCC(=O)N2
  pSTAT3 (nM): 0.05 nM

B5: Compound of SEQ ID NO: 45 (peptide)
peptide: [Ava]CNT[Trp(7-Me)]K(Ac)C[Yde][2Nal][Aib]ENH[Sar]-NH2
modifications: lactam N-11; disulfide 2-7
SMILES: CC(=O)NCCCC[C@@H]1NC(=O)[C@H](Cc2c[nH]c3c(C)cccc23)NC(=O)[C@H]([C@@H](C)O)NC(=O)[C@H](CC(N)=O)NC(=O)[C@@H]2CSSC[C@H](NC1=O)C(=O)N[C@@H](Cc1ccc(OCCN(C)C)cc1)C(=O)N[C@@H](Cc1ccc3ccccc3c1)C(=O)NC(C)(C)C(=O)N[C@H](C(=O)N[C@@H](CC(N)=O)C(=O)N[C@@H](Cc1c[nH]cn1)C(=O)N(C)CC(N)=O)CCC(=O)NCCCCC(=O)N2
  pSTAT3 (nM): 0.67 nM

B6: Compound of SEQ ID NO: 4 (peptide)
peptide: [Ava]CNTWQC[Phe(4-OMe)][2Nal][Aib]ENG-NH2
modifications: lactam N-11; disulfide 2-7
SMILES: COc1ccc(C[C@@H]2NC(=O)[C@@H]3CSSC[C@H](NC(=O)CCCCNC(=O)CC[C@@H](C(=O)N[C@@H](CC(N)=O)C(=O)NCC(N)=O)NC(=O)C(C)(C)NC(=O)[C@H](Cc4ccc5ccccc5c4)NC2=O)C(=O)N[C@@H](CC(N)=O)C(=O)N[C@@H]([C@@H](C)O)C(=O)N[C@@H](Cc2c[nH]c4ccccc24)C(=O)N[C@@H](CCC(N)=O)C(=O)N3)cc1
  pSTAT3 (nM): 34.8 nM

B7: Compound of SEQ ID NO: 40 (peptide)
peptide: [Nmha]CNTWQC[Yde][2Nal][αMeL]DN[dL]-NH2
modifications: lactam N-11; disulfide 2-7
SMILES: CC(C)C[C@@H](NC(=O)[C@H](CC(N)=O)NC(=O)[C@@H]1CC(=O)N(C)CCCCCC(=O)N[C@H]2CSSC[C@H](NC(=O)[C@H](CCC(N)=O)NC(=O)[C@H](Cc3c[nH]c4ccccc34)NC(=O)[C@H]([C@@H](C)O)NC(=O)[C@H](CC(N)=O)NC2=O)C(=O)N[C@@H](Cc2ccc(OCCN(C)C)cc2)C(=O)N[C@@H](Cc2ccc3ccccc3c2)C(=O)N[C@@](C)(CC(C)C)C(=O)N1)C(N)=O
  pSTAT3 (nM): 50.8 nM

B8: Compound of SEQ ID NO: 39 (peptide)
peptide: [Ahx]E[Ava]WQT[Phe(4-OMe)][2Nal][Aib]DNN-NH2
modifications: lactam N-10; ester 2-6
SMILES: COc1ccc(C[C@@H]2NC(=O)[C@H]3NC(=O)[C@H](CCC(N)=O)NC(=O)[C@H](Cc4c[nH]c5ccccc45)NC(=O)CCCCNC(=O)[C@H](CCC(=O)O[C@@H]3C)NC(=O)CCCCCNC(=O)C[C@@H](C(=O)N[C@@H](CC(N)=O)C(=O)N[C@@H](CC(N)=O)C(N)=O)NC(=O)C(C)(C)NC(=O)[C@H](Cc3ccc4ccccc4c3)NC2=O)cc1
  pSTAT3 (nM): 26.4 nM

B9: Compound of SEQ ID NO: 49 (peptide)
peptide: [Ava]CNT[Trp(7-Me)]K(Ac)C[Yde][2Nal][Thp]ENH[βAla]-NH2
modifications: lactam N-11; disulfide 2-7
SMILES: CC(=O)NCCCC[C@@H]1NC(=O)[C@H](Cc2c[nH]c3c(C)cccc23)NC(=O)[C@H]([C@@H](C)O)NC(=O)[C@H](CC(N)=O)NC(=O)[C@@H]2CSSC[C@H](NC1=O)C(=O)N[C@@H](Cc1ccc(OCCN(C)C)cc1)C(=O)N[C@@H](Cc1ccc3ccccc3c1)C(=O)NC1(CCOCC1)C(=O)N[C@H](C(=O)N[C@@H](CC(N)=O)C(=O)N[C@@H](Cc1c[nH]cn1)C(=O)NCCC(N)=O)CCC(=O)NCCCCC(=O)N2
  pSTAT3 (nM): 1.79 nM

B10: Compound of SEQ ID NO: 47 (peptide)
peptide: [Ava]CNT[Trp(7-Me)]K(Ac)C[Yde][2Nal][αMeL]ENH[Sar]-NH2
modifications: lactam N-11; disulfide 2-7
SMILES: CC(=O)NCCCC[C@@H]1NC(=O)[C@H](Cc2c[nH]c3c(C)cccc23)NC(=O)[C@H]([C@@H](C)O)NC(=O)[C@H](CC(N)=O)NC(=O)[C@@H]2CSSC[C@H](NC1=O)C(=O)N[C@@H](Cc1ccc(OCCN(C)C)cc1)C(=O)N[C@@H](Cc1ccc3ccccc3c1)C(=O)N[C@@](C)(CC(C)C)C(=O)N[C@H](C(=O)N[C@@H](CC(N)=O)C(=O)N[C@@H](Cc1c[nH]cn1)C(=O)N(C)CC(N)=O)CCC(=O)NCCCCC(=O)N2
  pSTAT3 (nM): 0.57 nM

B11: Compound of SEQ ID NO: 46 (peptide)
peptide: [Ava]CNT[Trp(7-Me)]K(Ac)C[Yde][2Nal][Thp]ENH[Sar]-NH2
modifications: lactam N-11; disulfide 2-7
SMILES: CC(=O)NCCCC[C@@H]1NC(=O)[C@H](Cc2c[nH]c3c(C)cccc23)NC(=O)[C@H]([C@@H](C)O)NC(=O)[C@H](CC(N)=O)NC(=O)[C@@H]2CSSC[C@H](NC1=O)C(=O)N[C@@H](Cc1ccc(OCCN(C)C)cc1)C(=O)N[C@@H](Cc1ccc3ccccc3c1)C(=O)NC1(CCOCC1)C(=O)N[C@H](C(=O)N[C@@H](CC(N)=O)C(=O)N[C@@H](Cc1c[nH]cn1)C(=O)N(C)CC(N)=O)CCC(=O)NCCCCC(=O)N2
  pSTAT3 (nM): 0.84 nM

B12: Compound of SEQ ID NO: 50 (peptide)
peptide: [Ava]CNT[Trp(7-Me)]K(Ac)C[Yde][2Nal][αMeL]ENH[βAla]-NH2
modifications: lactam N-11; disulfide 2-7
SMILES: CC(=O)NCCCC[C@@H]1NC(=O)[C@H](Cc2c[nH]c3c(C)cccc23)NC(=O)[C@H]([C@@H](C)O)NC(=O)[C@H](CC(N)=O)NC(=O)[C@@H]2CSSC[C@H](NC1=O)C(=O)N[C@@H](Cc1ccc(OCCN(C)C)cc1)C(=O)N[C@@H](Cc1ccc3ccccc3c1)C(=O)N[C@@](C)(CC(C)C)C(=O)N[C@H](C(=O)N[C@@H](CC(N)=O)C(=O)N[C@@H](Cc1c[nH]cn1)C(=O)NCCC(N)=O)CCC(=O)NCCCCC(=O)N2
  pSTAT3 (nM): 0.98 nM

B13: Compound of SEQ ID NO: 43 (peptide)
peptide: [Ava]CNT[Trp(7-Me)]QC[Yde][2Nal][Aib]ESH-NH2
modifications: lactam N-11; disulfide 2-7
SMILES: Cc1cccc2c(C[C@@H]3NC(=O)[C@H]([C@@H](C)O)NC(=O)[C@H](CC(N)=O)NC(=O)[C@@H]4CSSC[C@H](NC(=O)[C@H](CCC(N)=O)NC3=O)C(=O)N[C@@H](Cc3ccc(OCCN(C)C)cc3)C(=O)N[C@@H](Cc3ccc5ccccc5c3)C(=O)NC(C)(C)C(=O)N[C@H](C(=O)N[C@@H](CO)C(=O)N[C@@H](Cc3c[nH]cn3)C(N)=O)CCC(=O)NCCCCC(=O)N4)c[nH]c12
  pSTAT3 (nM): 1.31 nM

B14: Compound of SEQ ID NO: 53 (peptide)
peptide: [Ahx]C[Ava]WQC[AEF][2Nal][Aib]DAG-NH2
modifications: lactam N-10; disulfide 2-6
SMILES: C[C@H](NC(=O)[C@@H]1CC(=O)NCCCCCC(=O)N[C@H]2CSSC[C@H](NC(=O)[C@H](CCC(N)=O)NC(=O)[C@H](Cc3c[nH]c4ccccc34)NC(=O)CCCCNC2=O)C(=O)N[C@@H](Cc2ccc(OCCN)cc2)C(=O)N[C@@H](Cc2ccc3ccccc3c2)C(=O)NC(C)(C)C(=O)N1)C(=O)NCC(N)=O
  pSTAT3 (nM): 60.8 nM
